Test results as given in patent US6900177.
Non-standard residues stand in square brackets, D forms with d. No end group written: not given here.

Target: T1, lecithin:cholesterol acyltransferase (LCAT), purified from human plasma (human, UniProt P04180 25-440)
T1 sequence (looked up): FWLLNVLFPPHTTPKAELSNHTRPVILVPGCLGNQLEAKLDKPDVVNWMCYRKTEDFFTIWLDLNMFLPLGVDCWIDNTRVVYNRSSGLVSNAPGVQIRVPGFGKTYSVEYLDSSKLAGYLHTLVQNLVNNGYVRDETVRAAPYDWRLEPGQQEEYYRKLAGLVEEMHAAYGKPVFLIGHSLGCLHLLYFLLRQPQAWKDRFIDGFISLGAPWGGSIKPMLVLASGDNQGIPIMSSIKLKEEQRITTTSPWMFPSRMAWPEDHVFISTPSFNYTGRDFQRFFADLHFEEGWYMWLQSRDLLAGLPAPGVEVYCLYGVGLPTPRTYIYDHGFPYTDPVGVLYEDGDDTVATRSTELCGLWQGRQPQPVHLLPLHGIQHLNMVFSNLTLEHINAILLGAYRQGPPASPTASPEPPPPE
Assay: cell-based or functional assay

[dP][dV]LDLFRELLNELLEALKQKLK [peptide 48]
ACTIVITY (%) LCAT: 22%
